By IC50 is commonly meant the concentration needed to halve the response being measured. A high value points to weaker potency.

Where only a bound is given, the exact number is not on record here.

Common to all, as to type: cell-based
In test [1] the target is T1, α1β1 integrin (Homo sapiens, UniProt P05556+P56199).
T1 construct: expressed in transfected cells; host or cells: α1K562 cells
As to the kind of experiment: adhesion of α1K562 cells to immobilized collagen IV. The following applies: α1K562 cells, α1β1, collagen IV. The protocol:
Collagen IV (0.2 μg/well) in 0.02 M acetic acid was immobilized by incubation overnight at 4° C. on a 96-well plate. Plates were then blocked with 1% (w/v) BSA (bovine serum albumin) in Hank's Balanced Salt Solution (HBSS) containing 3 mM Mg^2+ at room temperature for 1-2 hours to prevent cells from non-specifically binding to the plates. α1K562 cells were labeled by incubation with 12.5 μM 5-chloromethylfluorescein diacetete (CMFDA) in HBSS for 15 minutes at 37° C. CMFDA labeled α1K562 cells were then pelleted, washed and resuspended in HBSS buffer containing 3 mM Mg^2+ and 1% BSA. […] The plates were washed three times with HBSS containing 3 mM Mg^2+ and 1% (w/v) BSA to remove unbound cells. Bound cells were lysed using 0.5% (v/v) Triton X-100 in H2O. Fluorescent CMFDA released by lysis of adherent cells in a given well was read using a Cytofluor 2350 fluorescence plate reader.
(§1) Adhesive ligands for the selected integrins consisted of collagen IV (0.2 μg/well), collagen I, fibronectin, or vascular cell adhesion molecule-1 (VCAM-1). Adhesive ligands in 0.02 M acetic acid were immobilized overnight at 4° C. on a 96-well plate. Plates were then blocked with 1% (w/v) BSA (bovine serum albumin) in Hank's Balanced Salt Solution (HBSS) containing 3 mM Mg^2+ at room temperature for 1-2 hours to prevent cells from non-specifically binding to the plates. α1K562, α2K562, K562, A5, and Jurkat cells expressing the α1β1, α2β1, α5β1, αIIbβ3, and α4β1 integrins respectively were labeled by incubation with 12.5 μM 5-chloromethylfluorescein diacetate (CMFDA) in HBSS for 15 minutes at 37° C. CMFDA labeled cells were then pelleted, washed and resuspended in HBSS buffer containing 3 mM Mg^2+ and 1% (w/v) BSA. […] Plates were then incubated at 37° C. for 30 minutes as indicated in Table 5 and washed three times with HBSS containing 3 mM Mg^2+ and 1% (w/v) BSA to remove unbound cells. Bound cells were lysed using 0.5% (v/v) Triton X-100 in H2O. Fluorescent CMFDA released by lysis of adherent cells in a given well was read using a Cytofluor 2350 fluorescence plate reader.
(§2) The effect of obtustatin, viperisrastatin, echistatin, and eristostatin on the binding of selected integrins to their adhesive ligands was evaluated using the cell adhesion assay described in Example 6. The integrin-expressing cells, integrins and corresponding adhesive ligands, and the results of the cell adhesion assay are shown in Table 6.

Test [2] addresses T1, α1β1 integrin. As to the kind of experiment: adhesion of α1K562 cells to collagen I. The following applies: α1β1, Coll I. The procedure: as §1, §2
Test [3] addresses T2, α1β1 integrin (Mus musculus, UniProt P09055+Q3V3R4).
T2 construct: endogenous in cells; host or cells: B16F10 cells
As to the kind of experiment: adhesion of B16F10 cells to collagen IV. The following applies: α1β1, Coll IV.

The target in test [4] is T3, α6β1 integrin (Homo sapiens, UniProt P05556+P23229).
T3 construct: expressed in transfected cells; host or cells: α6K562 cells
The test is described as follows: adhesion of α6K562 cells to laminin. The note with it: α6β1, LM.

Test [5] concerns the target T4, α9β1 integrin (Homo sapiens, UniProt P05556+Q13797).
T4 construct: expressed in transfected cells; host or cells: SW480α9 cells
The test is described as follows: adhesion of SW480α9 cells to VCAM-1. The following applies: α9β1, VCAM-1.

The test system of test [6] is human microvascular endothelial cells (HMVECs). The test is described as follows: BrdU incorporation growth assay in HMVECs. The note with it: 2 μM. The procedure:
Human microvascular endothelial cells (HMVECs) and melanoma cells (HS.939T) were cultured and treated with vehicle (control), 2 μM obtustatin, 2 μM echistatin or 50 ng/ml TNF-α. Growth of the cells was determined by a standard BrdU incorporation assay (Chemicon), according to the manufacturer's instructions.
Background: Incorporation of labelled thymidine or its analogues reports DNA synthesis.

Test [7] relates to MV3 human melanoma cells. The test is described as follows: MV3 melanoma cell migration through HUVEC layer. The note with it: 3 hours. The procedure: Cell migration through an endothelial cell layer is an important event in cancer cell metastasis. The effect of obtustatin on melanoma cell migration through an endothelial cell layer in vitro was evaluated as follows. Human umbilical vein endothelial cells (HUVECs) of 3-7 passages were purchased from Cascade Biologics (Portland, Oreg.). The HUVECs were seeded into 8.0 μm pore size FALCON® HTS FluoroBlok™ inserts (Becton Dickinson, Franklin Lakes, N.J.) in serum-containing endothelial cell growth medium. The inserts were placed into the wells of a 24-well plate (Becton-Dickinson), and the HUVECs allowed to grow to confluence on the insert over 72 hours. The interior of the FluoroBlok™ inserts is referred to below as the “upper chamber,” and the interior of the well in which the insert sits is referred to as the “lower chamber.”
Twenty-four hours before the assay, the upper chambers were washed with serum-free medium, and new medium containing TNF-α (3 ng/ml) was added to activate the HUVECs. […] After 3 hours incubation at 37° C. in 5% CO2, the extent of MV3 migration into the bottom chambers was assessed using a bottom-reading Cytofluor 2350 (Millipore Inc., Bedford Mass.). The amount of fluorescence in the lower chambers is directly related to the number of MV3 cells which have migrated through the HUVEC layer from the upper chamber. […]

Test [8] addresses α2β1 integrin (Homo sapiens, UniProt P05556+P17301). The test is described as follows: adhesion of α2K562 cells to collagen I. On the set-up: expressed in transfected cells; host or cells: α2K562 cells. The procedure:
as §1, §2

T1 sequence (P56199 29-1179): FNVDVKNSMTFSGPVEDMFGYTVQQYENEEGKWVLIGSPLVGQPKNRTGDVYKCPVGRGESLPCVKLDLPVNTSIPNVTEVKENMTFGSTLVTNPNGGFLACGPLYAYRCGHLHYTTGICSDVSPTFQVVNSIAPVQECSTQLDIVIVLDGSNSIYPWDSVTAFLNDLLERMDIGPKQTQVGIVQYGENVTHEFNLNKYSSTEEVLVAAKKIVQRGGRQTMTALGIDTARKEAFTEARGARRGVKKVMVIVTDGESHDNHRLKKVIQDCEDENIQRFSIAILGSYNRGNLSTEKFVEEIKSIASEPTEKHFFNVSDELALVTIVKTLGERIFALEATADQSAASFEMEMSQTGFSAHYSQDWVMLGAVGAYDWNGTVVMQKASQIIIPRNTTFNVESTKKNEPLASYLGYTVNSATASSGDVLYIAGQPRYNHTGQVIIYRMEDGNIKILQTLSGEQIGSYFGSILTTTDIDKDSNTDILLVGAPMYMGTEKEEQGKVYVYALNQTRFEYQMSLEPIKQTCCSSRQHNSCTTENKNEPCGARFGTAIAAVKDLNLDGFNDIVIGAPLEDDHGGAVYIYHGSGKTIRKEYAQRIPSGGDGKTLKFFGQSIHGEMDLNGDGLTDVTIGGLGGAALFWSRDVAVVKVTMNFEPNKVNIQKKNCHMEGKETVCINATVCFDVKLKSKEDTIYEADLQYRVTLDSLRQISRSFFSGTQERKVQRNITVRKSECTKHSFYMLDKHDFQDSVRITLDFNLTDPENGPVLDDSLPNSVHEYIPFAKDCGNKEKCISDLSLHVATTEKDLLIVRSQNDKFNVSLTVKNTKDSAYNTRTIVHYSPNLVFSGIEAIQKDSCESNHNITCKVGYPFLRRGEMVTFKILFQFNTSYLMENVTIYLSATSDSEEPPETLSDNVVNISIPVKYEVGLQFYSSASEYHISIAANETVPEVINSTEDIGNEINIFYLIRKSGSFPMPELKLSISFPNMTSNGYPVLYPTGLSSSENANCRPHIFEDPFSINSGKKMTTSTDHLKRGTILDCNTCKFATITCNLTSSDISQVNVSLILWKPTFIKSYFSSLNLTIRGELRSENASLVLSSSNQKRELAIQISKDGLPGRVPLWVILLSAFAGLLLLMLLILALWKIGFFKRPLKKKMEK
T1 sequence (P05556 21-798): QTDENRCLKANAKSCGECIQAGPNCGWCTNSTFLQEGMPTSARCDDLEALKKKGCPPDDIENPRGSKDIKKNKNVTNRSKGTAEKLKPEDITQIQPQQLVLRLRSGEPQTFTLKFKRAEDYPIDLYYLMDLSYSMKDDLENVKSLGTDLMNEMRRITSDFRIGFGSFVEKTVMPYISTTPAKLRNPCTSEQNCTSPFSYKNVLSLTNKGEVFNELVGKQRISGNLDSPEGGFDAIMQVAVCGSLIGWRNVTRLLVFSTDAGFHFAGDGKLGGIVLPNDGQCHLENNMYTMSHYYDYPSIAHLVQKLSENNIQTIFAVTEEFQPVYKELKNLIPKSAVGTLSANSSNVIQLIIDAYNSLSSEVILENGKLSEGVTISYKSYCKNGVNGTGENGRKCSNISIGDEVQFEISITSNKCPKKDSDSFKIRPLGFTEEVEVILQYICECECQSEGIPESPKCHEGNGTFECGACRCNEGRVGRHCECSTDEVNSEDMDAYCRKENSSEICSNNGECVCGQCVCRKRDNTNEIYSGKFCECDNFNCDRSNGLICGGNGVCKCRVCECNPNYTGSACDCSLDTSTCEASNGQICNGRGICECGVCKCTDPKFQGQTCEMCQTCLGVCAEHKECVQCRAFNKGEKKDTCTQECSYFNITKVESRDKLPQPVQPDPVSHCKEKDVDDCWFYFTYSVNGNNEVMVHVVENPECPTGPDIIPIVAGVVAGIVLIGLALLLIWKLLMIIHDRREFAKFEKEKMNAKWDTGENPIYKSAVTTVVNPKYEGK
T4 sequence (Q13797 30-1035): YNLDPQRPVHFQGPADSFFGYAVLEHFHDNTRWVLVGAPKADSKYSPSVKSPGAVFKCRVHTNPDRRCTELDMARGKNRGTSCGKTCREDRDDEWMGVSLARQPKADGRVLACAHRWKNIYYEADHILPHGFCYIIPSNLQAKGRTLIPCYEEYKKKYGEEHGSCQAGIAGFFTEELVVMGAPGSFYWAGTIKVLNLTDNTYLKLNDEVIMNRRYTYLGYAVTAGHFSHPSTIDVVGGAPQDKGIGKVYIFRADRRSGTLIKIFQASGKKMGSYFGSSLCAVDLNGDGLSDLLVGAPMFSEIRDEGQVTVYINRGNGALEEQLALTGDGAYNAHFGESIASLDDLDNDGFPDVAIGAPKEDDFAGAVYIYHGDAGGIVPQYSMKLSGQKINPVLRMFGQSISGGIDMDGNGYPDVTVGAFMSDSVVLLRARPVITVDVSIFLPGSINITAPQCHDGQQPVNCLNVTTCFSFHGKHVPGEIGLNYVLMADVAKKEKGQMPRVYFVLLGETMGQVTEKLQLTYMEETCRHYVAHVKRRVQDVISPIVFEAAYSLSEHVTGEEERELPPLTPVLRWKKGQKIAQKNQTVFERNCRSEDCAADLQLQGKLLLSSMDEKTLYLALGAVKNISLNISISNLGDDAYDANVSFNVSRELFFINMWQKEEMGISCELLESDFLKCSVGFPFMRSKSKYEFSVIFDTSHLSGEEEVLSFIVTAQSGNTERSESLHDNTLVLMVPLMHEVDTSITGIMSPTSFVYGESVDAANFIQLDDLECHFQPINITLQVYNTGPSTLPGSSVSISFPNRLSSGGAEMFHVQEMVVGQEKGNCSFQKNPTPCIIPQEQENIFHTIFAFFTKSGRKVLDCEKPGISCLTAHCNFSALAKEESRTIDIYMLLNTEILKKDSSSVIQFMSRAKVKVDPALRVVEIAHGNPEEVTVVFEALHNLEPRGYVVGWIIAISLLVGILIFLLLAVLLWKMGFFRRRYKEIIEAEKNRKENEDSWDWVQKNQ
T4 sequence (P05556 21-798): as the sequence (P05556 21-798) above
T3 sequence (P23229 24-938 limits assumed): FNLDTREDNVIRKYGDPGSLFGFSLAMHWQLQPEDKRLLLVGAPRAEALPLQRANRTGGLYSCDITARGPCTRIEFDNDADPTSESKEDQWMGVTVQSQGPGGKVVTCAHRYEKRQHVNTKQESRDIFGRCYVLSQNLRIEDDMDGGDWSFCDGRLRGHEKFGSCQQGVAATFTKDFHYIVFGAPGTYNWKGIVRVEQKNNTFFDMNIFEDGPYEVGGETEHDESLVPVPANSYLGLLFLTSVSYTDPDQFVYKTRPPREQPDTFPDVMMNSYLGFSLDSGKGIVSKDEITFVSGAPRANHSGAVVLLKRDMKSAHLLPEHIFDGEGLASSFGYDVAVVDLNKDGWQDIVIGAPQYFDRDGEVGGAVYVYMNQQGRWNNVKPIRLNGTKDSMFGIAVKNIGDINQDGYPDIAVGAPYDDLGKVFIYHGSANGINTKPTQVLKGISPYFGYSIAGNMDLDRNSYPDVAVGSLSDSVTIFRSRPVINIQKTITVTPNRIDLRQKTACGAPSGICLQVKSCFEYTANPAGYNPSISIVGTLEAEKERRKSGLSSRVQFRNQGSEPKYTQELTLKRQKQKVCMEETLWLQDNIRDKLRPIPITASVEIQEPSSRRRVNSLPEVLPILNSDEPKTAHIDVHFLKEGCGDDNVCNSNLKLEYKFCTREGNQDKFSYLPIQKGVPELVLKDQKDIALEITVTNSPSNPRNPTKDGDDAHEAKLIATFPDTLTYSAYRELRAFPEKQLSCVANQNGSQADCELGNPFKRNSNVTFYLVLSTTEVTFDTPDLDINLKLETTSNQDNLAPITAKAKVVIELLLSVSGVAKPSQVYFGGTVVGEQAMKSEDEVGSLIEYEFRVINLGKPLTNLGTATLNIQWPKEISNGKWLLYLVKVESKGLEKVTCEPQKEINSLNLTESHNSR
T3 sequence (P23229 942-1130 partner limits assumed): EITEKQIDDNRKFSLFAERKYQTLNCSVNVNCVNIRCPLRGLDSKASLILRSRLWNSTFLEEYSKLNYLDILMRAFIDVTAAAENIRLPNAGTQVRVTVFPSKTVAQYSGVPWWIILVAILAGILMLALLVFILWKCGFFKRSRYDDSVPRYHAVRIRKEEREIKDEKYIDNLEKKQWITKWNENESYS
T3 sequence (P05556 21-798): as the sequence (P05556 21-798) above

Take “Obtustatin (CTTGPCCRQCKLKPAGTTCWKTSLTSHYCTGKSCDCPLYPG)”: the IC50 was 2 nM in test [1]; 0.5 nM in test [2]; 0.2 nM in test [3]; more than 10000 nM in test [4]; more than 10000 nM in test [5]; more than 10000 nM in test [8]. The “growth (BrdU incorporation)” value in test [6] is “inhibited growth”. Besides, in test [7] (collagen IV or FGF as chemoattractants, 0 to 500 nM), the “migration of MV3 cells through the HUVEC layer” value is on record as “inhibited migration”. Besides, the “concentration giving essentially complete inhibition of MV3 cell migration” value in test [7] (through HUVEC layer) was “above 200 nM”.

For the origin of these results see US20030186334A1, “KTS-disintegrins” (Temple University - Of the Commonwealth System of Higher …, priority 2001, published 2003).
